The values below come from IntAct's records for PubMed 23435380.

B1: Protein phosphatase EYA2 (Homo sapiens), O00167-1 (parent)
chain: MVELVISPSLTVNSDCLDKLKFNRADAAVWTLSDRQGITKSAPLRVSQLFSRSCPRVLPRQPSTAMAAYGQTQYSAGIQQATPYTAYPPPAQAYGIPSYSIKTEDSLNHSPGQSGFLSYGSSFSTSPTGQSPYTYQMHGTTGFYQGGNGLGNAAGFGSVHQDYPSYPGFPQSQYPQYYGSSYNPPYVPASSICPSPLSTSTYVLQEASHNVPNQSSESLAGEYNTHNGPSTPAKEGDTDRPHRASDGKLRGRSKRSSDPSPAGDNEIERVFVWDLDETIIIFHSLLTGTFASRYGKDTTTSVRIGLMMEEMIFNLADTHLFFNDLEDCDQIHVDDVSSDDNGQDLSTYNFSADGFHSSAPGANLCLGSGVHGGVDWMRKLAFRYRRVKEMYNTYKNNVGGLIGTPKRETWLQLRAELEALTDLWLTHSLKALNLINSRPNCVNVLVTTTQLIPALAKVLLYGLGSVFPIENIYSATKTGKESCFERIMQRFGRKAVYVVIGDGVEEEQGAKKHNMPFWRISCHADLEALRHALELEYL
partner: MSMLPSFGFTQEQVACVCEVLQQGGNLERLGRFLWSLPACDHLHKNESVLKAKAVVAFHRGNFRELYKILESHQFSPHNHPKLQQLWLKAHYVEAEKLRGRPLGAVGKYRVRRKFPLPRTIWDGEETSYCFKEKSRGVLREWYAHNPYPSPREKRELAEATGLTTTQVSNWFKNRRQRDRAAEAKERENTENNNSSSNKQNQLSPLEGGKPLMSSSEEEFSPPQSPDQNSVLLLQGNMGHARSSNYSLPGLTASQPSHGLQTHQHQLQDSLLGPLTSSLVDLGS
B2: Homeobox protein SIX1 (Homo sapiens), Q15475 (parent)
chain: B1 partner
partner: B1 chain

The first assay covers variants of B1. The conditions noted are these: with six1_human SIX1, Q15475.
As for MVELVISPSLTVNSDCLDKLKFNRADAAVWTLSDRQGITKSAPLRVSQLFSRSCPRVLPRQPSTAMAAYGQTQYSAGIQQATPYTAYPPPAQAYGIPSYSIKTEDSLNHSPGQSGFLSYGSSFSTSPTGQSPYTYQMHGTTGFYQGGNGLGNAAGFGSVHQDYPSYPGFPQSQYPQYYGSSYNPPYVPASSICPSPLSTSTYVLQEASHNVPNQSSESLAGEYNTHNGPSTPAKEGDTDRPHRASDGKLRGRSKRSSDPSPAGDNEIERVFVWDLDETIIIFHSLLTGTFASRYGKDTTTSVRIGLMMEEMIFNLADTHLFFNDLEDCDQIHVDDVSSDDNGQDLSTYNFSADGFHSSAPGANLCLGSGVHGGVDWMRKLAFRYRRVKEMYNTYKNNVGGLIGTPKRETWLQLRAELEALTDLWLTHSLKALNLINSRPNCVNVLVTTTQLIPALAKVLLYGLGSVFPIENIYSATKTGKESCFERIMQRFGRKAVYVVIGDGVEEEQGAKKHNMRFWRISCHADLEALRHALELEYL [P516R], the “effect of a mutation on the interaction” value was “decreasing interaction strength”.

For the variant MVELVISPSLTVNSDCLDKLKFNRADAAVWTLSDRQGITKSAPLRVSQLFSRSCPRVLPRQPSTAMAAYGQTQYSAGIQQATPYTAYPPPAQAYGIPSYSIKTEDSLNHSPGQSGFLSYGSSFSTSPTGQSPYTYQMHGTTGFYQGGNGLGNAAGFGSVHQDYPSYPGFPQSQYPQYYGSSYNPPYVPASSICPSPLSTSTYVLQEASHNVPNQSSESLAGEYNTHNGPSTPAKEGDTDRPHRASDGKLRGRSKRSSDPSPAGDNEIERVFVWDLDETIIIFHSLLTGTFASRYGKDTTTSVRIGLMMEEMIFNLADTHLFFNDLEDCDQIHVDDVSSDDNGQDLSTYNFSADGFHSSAPGANLCLGSGVHGGVDWMRKLAFRYRRVKEMYNTYKNNVGGLIGTPKRETWLQLRAELEALTDLWLTHSLKALNLINSRPNCVNVLVTTTQLIPALAKVLLYGLGSVFPIENIYSATKTGKESCFERIMQRFGRKAVYVVIGDGVEEEQGAKKHNMPFWRISCHADLEALRHRLELEYL [A532R], the “effect of a mutation on the interaction” value is “disrupting interaction strength”.

The variants in the next assay derive from B2. To be noted: with EYA2, O00167-1.
Regarding MSMLPSFGFTQEQVARVCEVLQQGGNLERLGRFLWSLPACDHLHKNESVLKAKAVVAFHRGNFRELYKILESHQFSPHNHPKLQQLWLKAHYVEAEKLRGRPLGAVGKYRVRRKFPLPRTIWDGEETSYCFKEKSRGVLREWYAHNPYPSPREKRELAEATGLTTTQVSNWFKNRRQRDRAAEAKERENTENNNSSSNKQNQLSPLEGGKPLMSSSEEEFSPPQSPDQNSVLLLQGNMGHARSSNYSLPGLTASQPSHGLQTHQHQLQDSLLGPLTSSLVDLGS [C16R], the “effect of a mutation on the interaction” value was “disrupting interaction strength”.
